Measurements taken from the NTF2 design screens of Basanta et al. (2020).

Assay: protease stability score; higher = more stable; yeast display proteolysis, trypsin and chymotrypsin;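 also: relative to predicted unfolded state with 0 unfolded-like and 1 meaning tenfold more protease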

Sequence	protease stability score
SERRERLEVLSEILLRAWETGDEQELVENADPHTKLEVHQGDKEKHFHGWELILKHIYQIKNVKIHIEHVHIQGDKIENHVKLNINGKRIEVEITVWVVDGVIKHMEVRIK	1.93
SELEEITRRVWERLVRDLRTGDEKSLQEMLDPNVRSDFNGVELIGRELATKLIAELRIHDVKVEDVKFQGDKMTLDTKIDGEVNGKRHEFKHTLIFVKVDGQWMIETEEFH	1.26
DEEEEHLRKMTKLLWDQIHTGDEKDFLRLADPNARFEVEINGRKYEAHGREEIKHMLHDILELLGIDHVRLRDLELQGNKVILHSDTHVNGQDSKMRIEILIVNGRLKSFKIQTL	0.995
DEERKIVEKWANEFLQAQITGDEDWFREYADPTTRYNLHIGDYDLHLHGRELVLTFLHEILRKFKNIKIEIKRRNIQGEKTDIDGVENYNGVEHRVRIHLVVINGQLKSYTIKEH	0.604
TEDMEVMRRILELFIELVTTGDWEILRELLDPNVRIEIGDKQLHGRELVSNSLLLLGVDHIRVKDMKIQGEKLHIETENEINGVKLNTHILLLKINGRWLIKDLSVK	1.29
SEDEEAVRRLIRMLVEWESTGDFESVLRLFDPHARYRIDGVDLHGRHAWERLYKEIRINSVRVKRIEMQGDKVHVDSRLRGEIDGRETDLEVEIIIRKVNGRWVIEEVRIH	2.2
DEEEQLSKIALRHFVESLETGDEHLLHRLIDPHARDIVDGVEIHGRDRMVENLIHMIERFKNVRLEIKDIKVINGRVHVEGRLEVDGKKLTMNLHFQKFDGRWWVRSVERH	1.52
SELDRDVEHVLKELAKAMRTGDEEMLHDMIDPNARMIVDGKNLHGREQIWKFFTELRVDSRRYEVKHSEIQGNKLEIDGRTRIIIIVNGREIDRETHTEIILLKINGKWLMHSVRIE	1.07
DEDSYNSHRALEDLWRDLETGDEENLNKLADPHARVKQGDKEFHGMHHWIHFLESLGITKVHVRIHRIQTQGDKVRIVGEIEFNGRRHHSIIFIEKINGVWLVHKMEIK	1.41
DEDKTNLDMALRLLKEVTETGDEETLLKMMDPNVRIIINGRDVHGRENAERFATEWSRKVKNATLEVKDFHSQGEKVHLLGHDIFNGREIEFRIIWVKYNGRWFIHEIIFI	1.3
SDLDEVARHATQLIEEVQQTGDWHTLMRLADPNTRLLIGDKVIHGMTELIRILDELYERWGVSKVKVRLHDVRVQGDKVDVDTRSEFNGREVKVRFIIRKVDGRWHLKSVEEHLD	1.12
TEDDKDWEEIYKMLEHASKTGDERIFNKFIDPNTMSVVNGVDLIGMERWRNHWEHARFRHIEFRHVEIIDGRLDIQGHLRGEYNGREIRTDMRLIILKIDGRWIHKSFEFH	0.944
DDLEHDHKTVLELLKHLEETGDWDRLAKLADPNVRLQIGDKEWHGRRDMAKVLKRFIEEMRIQHIRFRDMKIQGDKLVFDTELDFEQGDKTVHVRTEIILVVVNGQLKSIEIRIE	2.44
EEEEWLVKIAIRILIETFRTGDFHLWEELADPNTRLRIGNFEFHGREEVLHSLIEMRIHSVHIEDHKVIDGRLHVDSRLLGTFNGQHINRETRLISLKINGVWFIKSFEFV	0.648
TEEEEILREAYELFFKMMKTGDEHMKSRLADPNVRLHIGDKENHGMDEVIRVFREEHKRYKNLTLRHWHLEDSHVVNGRIILHYKMNVEVNGVEIETSVHVVIRKINGKWELESLSVE	0.882
DEDERISRNFVRLILHAIRTGNENMIKTMADPNDRLEVGDKEFHGRELALEFWFRFDVLKEFHIRSVHSQGDKLHIEGESTWVIGDKEIRTTEHRLIIKIDGQWVLTEIKME	1.62
TTEHAATLFLTSMITGDWEWISRLFDPHVRLVFNGVTNVGRELAIHKLVETVLKLGVKHTHIDEMRLYGDKVEVHVTLRVGDKTTNIDIEVDWVDGQVKEVHIDTRTEDTSKILKHVYK	0.109
SEEDHEHKVLTELSRKDWRTGNEHDLERLMDPNVRVEVDGREHHGWESAHELAKHFHRFFKNATLEIRHEEIQGEYLHIEMIIRVGDKVFDVHFIARKINGRWVLTEFSVH	0.261
HEYEEWSEIAMRLWILAERTGDERHIAHLLDPHVRYVFNGVEVIGMELITELVKRRWEQWRVHVEIEDRKFQGNFSKIEGHLRLHVGDKTEERRVEYRMDIVDGRIREISVIIE	1.37
DEEDKHADWIMKQMVDLWTTGDEETSITLLDPNVKLHVDGRDIHGREKAMEWLRRFIVHLRIEIIIRHFDFQGNFARFHGELEIRIGDKSQVLETRLEIIVVNGKFRILEIELR	2.71
TEEDERAKHWAERWIRLLETGDFEILTELLDPNVRVEIDINGKKIELHGMETISEDLRRRLEELGFKHFHIRDMKSQGDKSRVRGEVEVNGKPVDVHIVLNIVDGKLKTFRFENK	1.35
DHHEKHLKHIFHLYIRAWITGNEKEMQDLADPNVRMHVGDKHVHGREEVRRLHHHLLTHIRLDHFHIDDHRVYDGVVEVKGIEDHNVNGQRHRFESTWIIVIVNGRIEEIEIRVH	1.16
DEIEDHMREVREQLLRDLTTGDWKKMREMLDPHVRIHIGDFHDHGRESAEEWLRKFKGLTLRIHDVRVKIIDGRALVENDGELTYDGRRHRVRIHVYVTKVDGVWMVETLEIRIH	1.15
DEEEDHERRFLEELLRDWVTGDENKLDELFDPDARNYINGRRYHGREDVREVLKLLKDRIDHIEMTDIKDVKIQGDKMRFDTRVHLRQGDKTIRIKTHFVIWKVNGKWRMEAVVIV	1.02
DKTEEDAKRWAEHFSHNMETGNEEKIIDLADPNTRLEVNGRHVHGREEFSRFWKELSDRVDHIRIQITRISIIGDKIRIDSRIFLHINGKEMIVESVLISEKVNGRWMMREIDIR	1.84

Sequence	protease stability score
DEDDEDTRRLLKLLSDAEETGDEELLRHLADPHVRVHVGDKEWHGWDAFVRFLRHIRIETFHVRRIRVQGDKVDVDGQTVVTINGRRHELKTTIILIKIDGQWVIEKLTIH	1.79
SEDEKMANEMLEIMMRNLITGNWEELSRLADPHVRIVINGVELHGRETINNYLHHLRIKRVHLNVTHIESIDGKVKSIGLLREHGEFNGKETETHTKVILIIQKVNGVWIVKEIRDE	1.4
DEDREEAIKTVEETVELIATGDFEKFEELVDPNVRIDVNGVDVIGREDWRRRVEEIRISMRDSDIKRVRSVNGVMHVDGRIELEVHVNGKTKNVNLRTHWYIVKINGRWLIHSVHFV	1.99
EEEEEELLELLKRLWHAKSTGDEETTEKMADPNARFIINGREVHGRHMLNHLVKHLREEIKHVHIHRVSVVNGKAKMDTEVNVELEYNGVTFIIRTRVEIDTVVIDGRFHSVSIEIR	1.12
NEDEESIRRAVEHWSKLILTGDESLLRQMADPNVRIQVGDKRIIGMDSLVKLMEDLGWEMEIRTKIRHTEIINGKMHTRTQLDIHFRQGDKKVDIHRDTEIVIEKVDGRWHIHSIRIE	0.752
SEDEKLFRLSIEIYLRVSRTGDEHMAHEYADPHVRLRIGDKEFHGREEFIKWVNELRVEELRLKEVRVIGDKAHLRTEVHTYIGDKEINYEMEIHQTKIDGKWFLREMKLK	0.486
DDREEHAKELVDLFQKVMLTGDFKTLEELIDPNYRLHVNGQDVHGMERVIRHIFHMRFQDVKVKRIDHQGNKIDMDVRSIVNVDGRLHEHEIQLIALKVDGRWTVKSLEVH	1.48
SREEEIMRRFLELLILAFRTGDEDTYLKMLDPRVRLEINGRDLHGRETVREHYKDERDELGVSQFHIWVRDLRVQGDKIETEGHLEFDGRWLDIHFHAHFVDGRLKSFRIEIR	1.32
SEEHKQIEEFLTRFYRFKKTGDEKMLSRMADPNYKMDIDGQDVHGREEYEEASRRFDHIHHIKLRQFERQGNKVYLDIEVDGEVNGRQTKHTSTLILLKIDGRWYIEHVHWE	0.722
DEDERLYRIALEFLIEWHETGDEDEITRNVDPDARVDINGRNLVGREKVHRTLKELGINVLHIHRVHIVNGRLDVDGTVRFNGRTHRTRIIMLKVDGKWILDWLFIH	1.56
DEDEENFERLVHLTLHYLLTGDFEDFNHLADPHVKLNVNGQQHVGREKWSELLHLFGINHMQIEERDLRVIGDKVRLDVRGTSQVGDKEHEVHIHIHAQKVNGRWTVTEMQINTE	2.1
DEDHRLWEEMIRILHDALRTGDEDMLEHLMDPDTRLHVGDKNVHGRRDMKYFWEILGVDRVELVIRSFRLIDGKAEIDGESRFNGVTRRVRLIHNKINGRWLTESIHIH	0.745
DKRIEWYRHVMEVLFNILLTGNFEILEELLDPHVRIDINGKEYHGREQMIEAWETHLHELRIHDMRIKTIDHQGDKHILTTRVDIDIDGQNVEDRTHIELHIIDGRLKSIILRVS	1.06
DHLEEDSERAKELFIKVFKTGDEHIIKEMIDPHARLDWNGQEFHGREEVTRVMHELLEEYGIKHLHVRRFKVVNGRVEIDTELRQGDYRDESIIIILKVNGKWLIHSIEFK	2.12
DEEHRHAHWLLNVLTKAMITGDESLMEHLLDPNARLIQGEFELVGRERIIDWFHHIRTHEVRIHVEHFDVVNGKAIIFGHVTVDGTVNGQRREFRFDQTYFSSKIDGKWVIESLEME	1.3
DEHHKHLHHLAEHTLRLIATGDEDRFSDLADPHTRLRVNGVDVIGRELVIELWKRMLEQIRITDVHVKRSVVIDGVVHQDTELHSTVGDKRFELKTKSHIFIINGRIHMVEIQHE	-0.28
DERTLEQLLQDFINNMQTGDHQSLKDLLDENARVNIGDKTLSGRERVTTALKRLMRRVDHIQVDHYEVTNGEMNIDMQLEVNGVRVKVEVIIEVHNGKAKFIEFRVRNEEQWERVEG	2.19
TEDEKTAKHAKELLEHSIRTGDERLMERLLDPHALLIFDGRHIHGREDISRWYREIRIHHIHDENSEIQGDKLHLHMRIDGEYDGKRHELRVHWHSEKVNGRWSIRQVVLH	1.44
SEDEENAKFVLHELYKADETGDERKQSHMMDPNVRIIVGDKEWVGRDEVVELMHEIRVHRVHIDDFRFQGDKIEVHGTTKGEFNGKRDVYHVHWLILKIDGRWRLQSLEVR	1.11
SEEDKATEKFLRELSEWHRTGDEEHFVRNLDPHVRVDIDGVELHGREEVERHLRKRWEKLGVDRFDSELRFKHIHVQGDKIEIHIRIILDINGVHRNVDVEIIALKVNGRWLIQSYHIR	2.24
DEEEEDFRMAEHFIRKSLKTGDERLREELMDPHVRIHQGDKHFHGREDASELHRQFDHIEHVHLKDFHFYNGRVIMHMHVLGHWDGRRTRFDTHVTATKIDGRWIVKEWTII	0.552
SEVQELAERMFRFLLKVFETGNEDRLTELMDPNTLQIIGDKRNHGRDLYLRTVFEKVEHARMRIEFKEVHVINGQINVDGILWLEFDGRRIFFRVHLELTVVNGVLKEEHVTIH	1.56
DETERLAEKWYRHWLHLILTGDWELLEKQADPHYKFHVGDKVFIGRELASEWLRHLYEHIRIDDMKITHLDLQGDKINNDGRMRVTQGEKHKEVSVDLHMIVVNGKMHEIRIRTH	1.45
SHLEEETMHIAEIFIKNELTGDERKLVELLDPNTRLHIDIGDKHIDVHGMENITKLLREIWKRLGADHVHIKDVRVQGDKADIITRIDVNGREIHSRIHILVINGKIESLKLHVE	1.33
DEDEEIDKHVAKHLEELFLTGDEKRLSQYFDPDVRNEVNGKEFHGRELLLKVLRDFGADHRTVEHREVSLYGEKMRFHIHLRLHVGDKSMTTILHIIIDKVNGRWHFEKIRIDVR	0.798
